Molecular target: T1, 人Claudin 18.2 (紧密连接蛋白-18.2) (human)
T1 construct: Full-length protein stably expressed on HEK293 or NIH-3T3 cells; also called 紧密连接蛋白18剪接变体2
Assay: flow cytometry on HEK293-Claudin 18.2 stable cells, recombinant antibody titrated from 600 nM in 3-fold steps

T1 sequence (chain, as listed by the source limits assumed): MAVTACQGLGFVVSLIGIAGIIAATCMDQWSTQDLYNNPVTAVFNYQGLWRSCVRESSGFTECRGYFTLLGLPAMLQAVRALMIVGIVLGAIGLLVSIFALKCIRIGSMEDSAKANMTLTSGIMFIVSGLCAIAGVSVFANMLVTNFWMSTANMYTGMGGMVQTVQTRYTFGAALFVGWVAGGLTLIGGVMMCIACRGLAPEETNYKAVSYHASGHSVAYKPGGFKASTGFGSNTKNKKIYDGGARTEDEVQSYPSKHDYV

| Binder | EC50 [nM] |
| --- | --- |
| 4F6-G11 (antibody, V domains shown, Mouse monoclonal antibody; also called 4F6-Gl1; 重组抗体4F6-G11) VH: DVQLVESGGGLVQPGGSRKLSCGASGFTFSSFGMHWVRQAPEKGLEWVAYISSDSSTKHYADIVKGRFTVSRDNPRNTLFLQMTSLGSEDTAIYYCARLRRGGNALDYWGQGTSVTVSS VL: DIVMTQSPSFLTVTAGEKVTMSCRSSQSLLNSGNQRNYLTWYQHKPGQSPKLLIYWASTRESGVPDRFTGSGSGTTFTLTISSVQPEDLAVFYCQNNYYFPFTFGSGTKLEIR | 1.18 |
| 3H2-C5 (antibody, V domains shown, Mouse monoclonal antibody; also called 抗体3H2-C5; 重组抗体3H2-C5) VH: DVQLVESGGGLLQPGGSRKLSCAASGFSFSNFGMHWFRQAPEKGLEWVAFISGGSSPIYYADTVKGRFTISRDNPTNTLFLQMTSLRSEDTAMYYCARFRRGGNAMDYWGQGTSVTVSS VL: DIVMTQSPSSLTVTAREKVTMSCKSSQSLFNSGNQRNYLTWYQQKPGQPPKLLIYWASTRESGVPDRFTGSGSGTDFTLTIRSVQAEDLAVYYCQNSYSYPFTLGSGTKLEIK | 1.01 |

From patent CN111777681A (SHANGHAI LIANGYUE BIOMEDICAL TECH CO LTD, dated 2020)
